The text below walks through data of article PMC8622905, “Structural Effects of Disease-Related Mutations in Actin-Binding Period 3 of Tropomyosin” (Molecules, 2021).

Data set [1] concerns the molecule itself. Put plainly: mass spectrometry; molecular weights of the purified peptides compared with theoretical MWs calculated in Expasy; Liquid Chromatography and Mass Spectrometry Laboratory.
Data set [2] concerns the molecule itself. Put plainly: cross-linking; disulfide cross-link through the N-terminal Cys, seen on SDS-polyacrylamide gel; Laemmli solution without β-mercaptoethanol, with or without 3 min at 100 °C.

B1: Tpm1.1_(64–154)I92T (domain or fragment)
chain: not shown
modifications: oxidized Cys residues (disulfide between the N-terminal Cys of the two chains)
notes: tropomyosin Tpm1.1 (human, TPM1), residues 64-154 with the cardiomyopathy mutation I92T; source: His-tag removed with thrombin; not shown: His-tag, N-terminal, cleaved
As to B1, in data set [1], the “stoichiometry N” value is 2.

B2: Tpm3.12_(65–155)R91C (domain or fragment)
chain: not shown
modifications: oxidized Cys residues (disulfide between the N-terminal Cys of the two chains)
notes: tropomyosin Tpm3.12 (human, TPM3), residues 65-155 with the congenital myopathy mutation R91C; source: His-tag removed with thrombin; not shown: His-tag, N-terminal, cleaved
As for B2, the “stoichiometry N” value in data set [1] was 2.

B3: Tpm1.1_(64–154) (domain or fragment)
chain: not shown
modifications: disulfide bond between the Cys residues of the N-terminal fusion sequences of the two chains (non-reducing conditions)
notes: tropomyosin Tpm1.1 (human skeletal isoform, TPM1), residues Leu64 to Ile154; Cloned in pET15b between NdeI and BamHI; also called Tpm1.1 peptide; wild-type Tpm1.1_(64–154); source: His-tag removed with thrombin; not shown: His-tag, N-terminal, cleaved
As for B3, in data set [2], the “stoichiometry N” value turned out to be 2.

B4: Tpm3.12_(65–155) (domain or fragment)
chain: not shown
modifications: disulfide bond between the Cys residues of the N-terminal fusion sequences of the two chains (non-reducing conditions)
notes: tropomyosin Tpm3.12 (human skeletal isoform, TPM3), residues 65-155, numbered as in full-length Tpm3.12; Cloned in pET15b between NdeI and BamHI; One sentence of the methods prints 65–165; also called Tpm3.12 peptide; wild-type Tpm3.12_(65–155); source: His-tag removed with thrombin; not shown: His-tag, N-terminal, cleaved
Turning to B4, the “stoichiometry N” value in data set [2] is 2.

B5: Tpm1.1_(64–154)V95A (domain or fragment)
chain: not shown
modifications: oxidized Cys residues (disulfide between the N-terminal Cys of the two chains)
notes: tropomyosin Tpm1.1 (human, TPM1), residues 64-154 with the cardiomyopathy mutation V95A; source: His-tag removed with thrombin; not shown: His-tag, N-terminal, cleaved
Regarding B5, the “stoichiometry N” value in data set [1] is 2.

B6: Tpm3.12_(65–155)R91P (domain or fragment)
chain: not shown
modifications: oxidized Cys residues (disulfide between the N-terminal Cys of the two chains)
notes: tropomyosin Tpm3.12 (human, TPM3), residues 65-155 with the congenital myopathy mutation R91P; source: His-tag removed with thrombin; not shown: His-tag, N-terminal, cleaved
For B6, the “stoichiometry N” value in data set [1] was 2.

The term stoichiometry N denotes the number of molecules, sites or subunits per partner or assembly.
